Reference: US20160108098A1 (GlaxoSmithKline, published 2016)
Read-outs that look alike come from different tables or passages of the source. Where no end group is shown, it is not given here.

T1: human Neuropeptide Y receptor type 2 (human, UniProt P49146 1-381)
T1 sequence (looked up): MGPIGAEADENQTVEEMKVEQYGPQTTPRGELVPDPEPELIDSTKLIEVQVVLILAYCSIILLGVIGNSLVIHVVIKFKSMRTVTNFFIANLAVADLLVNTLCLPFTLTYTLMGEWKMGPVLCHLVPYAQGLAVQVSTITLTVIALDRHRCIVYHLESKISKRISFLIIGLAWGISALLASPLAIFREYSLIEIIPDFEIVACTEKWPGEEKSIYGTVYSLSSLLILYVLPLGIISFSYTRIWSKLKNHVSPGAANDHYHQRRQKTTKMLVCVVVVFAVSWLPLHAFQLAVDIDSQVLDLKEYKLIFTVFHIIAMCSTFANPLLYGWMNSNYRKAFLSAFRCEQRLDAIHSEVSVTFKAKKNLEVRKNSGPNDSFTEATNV


Experiments:
[1] = target: T1, human Neuropeptide Y receptor type 2; test: cell-based or functional assay
[2] = target: T1, human Neuropeptide Y receptor type 2; test: cell-based or functional assay; remark: listed apart in the source

| Binder | hNPY Y2 pEC50 [1] | hNPY Y2 pEC50 [2] |
| --- | --- | --- |
| IKPEAPLSKQLEEEAVRYYASLRHYLNLVTRQRY-NH2 [Peptide 2] | 8.6 pEC50 |  |
| PKPVAPGCDASPAELNRQYSDLRNYWNLVTRQRY-NH2 [Peptide 15] | 8.9 pEC50 |  |
| PKPEHPGKDASPEEWNRYYASLRKYLNWVTRQRY-NH2 [Example 25] |  | 9.6 pEC50 |
| IKPPYPGCDASPEEQNKYYASLRAYWNLVTRQRY-NH2 [Peptide 8] | 9.3 pEC50 |  |
| PKPEAPGEDASPKEWNRYYASLRKYLNWVTRQRY-NH2 [Peptide 3] | 9.2 pEC50 |  |
| PKPEAPLSKQLEEEAVRYYASLRHYLNLVTRQRY-NH2 [Peptide 21] | 8.7 pEC50 |  |
| PKPEAPGCDASPEEWNRYYASLRKYLNWVTRQHY-NH2 [Peptide 14] | 8.2 pEC50 |  |

Results, then the binder that gave them:

| hNPY Y2 pEC50 [1] | hNPY Y2 pEC50 [2] | Binder |
| --- | --- | --- |
| 7.9 pEC50 |  | PKPEAPGCDASPEEWNRYYASLRKYLNWVTRQNY-NH2 [Peptide 1] |
|  | 9.8 pEC50 | PKPEAPGKDASPEELNRYYASLRKYLNWVTRQRY-NH2 [Example 31] |
|  | 9.8 pEC50 | PKPEAPGKDASPEELNRYYASLRKYLNWLTRQRY-NH2 [Example 2] |
